Columns and labels:
[1] = Chamberlin et al. (1973); cited from earlier work
[2] = tested on: DNA templates with Syn5 promoter; experiment: Gel assay of transcription products with MgCl2, FeCl2 or MnCl2 as cofactor; assay type: biochemical
Procedure: FIG. 6 depicts a comparison of Syn5 RNAP transcription products in the presence of MgCl2, FeCl2 or MnCl2 on denaturing gels. Reactions contained 200 µM ATP, GTP, UTP and 10 µM[…]-^32P]CTP, 50 nM Syn5 RNAP, DNA templates (1 µM template as shown in FIG. 3A for 71 nt runoff transcript, 4 nM template 3 as shown in FIG. 3C for 225 nt product, or 1 µM template 1 as shown in FIG. 3B for 37 nt runoff transcript).
For the gel assay results shown in FIGS. 1, 2, 3, and 13, reaction mixtures (20 μl) contained 40 mM Tris-HCl (pH 7.9), 6 mM MgCl2, 2 mM spermidine, 10 mM DTT, 200 µM[…]P, GTP and UTP, 10 µM [[…]-^32P]CTP, 1.5 U/µl RNaseOUT™ recombinant ribonuclease inhibitor (Invitrogen), 100 nM Syn5 or T7 RNAP, and DNA templates as described in the figure legends (either 2 nM phage genomic DNA, 4 nM purified PCR products, or 1 µM synthetic dsDNA fragments). Reaction mixtures were incubated at 24° C. for 30 min. The reaction mixtures described in FIG. 6 contained 40 mM Tris-HCl (pH 8.0), 200 µM[…]P, GTP and UTP, 10 µM [[…]-^32P]CTP, 1.5 U/µl RNaseOUT™, 50 nM Syn5 RNAP, DNA templates, and various amounts of MgCl2, FeCl2, MnCl2 and KCl as described in the figure legends. After 30 min incubations at 24° C., one unit of RQ1 RNase-Free DNase (Promega) was added to each reaction mixture and incubated for an additional 20 min at 37° C. to remove the DNA templates. Reactions were then terminated by the addition of 8 µl of loading dye containing 95% formamide and 40 mM EDTA. Samples were then heated at 90° C. for 1 min and loaded onto either 10% or 25% TBE-Urea denaturing gels. After electrophoresis, gels were dried and analyzed using a Fuji BAS 1000 Bioimaging Analyzer.

For “T7 RNAP: RNA polymerase encoded by bacteriophage T7, from New England Biolabs [reference compound]”, the “temperature of maximum activity” value [1] is listed as 37 °C.

B1: Syn5 RNAP: single subunit DNA-dependent RNA polymerase from marine cyanophage Syn5, amino acid sequence SEQ ID NO:23 (protein)
chain: MSFDLIARQLQRETEAAELARKRLQDARREANERSYASSNIESRKAIATFLDPIAQRIGERLFTLRRGTGAVDAAEVYKHLKNADHHHLALITMKTALDVLGKDPEPQIQQLTTAIGRNIQLELRLTYYAEENPELYKQASRFFHAGTGTRQKATVIKLKFNREGIEWDQWSRVTCHKVGQWLMLAMADVTGWIERATDRTSGGRKTKTRICYSREFLQHRDTILAAAEQLAFCQWPMLCPPIEWSNDHNGGYLSEQIRRVNPLIRKTGPLGTRKQGDIPLAMLNNLQGQAYKVNPEVLDIANHCYESNVTVGKFIRHAPLPVPPSPGEDCTEDQLTAYKRARREAEDFNAQISQKNWRTTEVMYVARKYADEASFWMPASFDYRGRVYFLNTALNPQGTDFDKALLYFAEEGPVNEWWLSFHVATTYGLDKETMVNRVQWARDNHELIDRIASDPVRHTEWHDADEPWCFLAACLEYKACVIDGTKQTSGLPIGIDATCSGLQHLAAMTRCGRTAALVNVTPTDKPADAYKTVAQASLKHLPKEQHEWITRKVTKRPVMCTPYGVTMSSARGYIRDQLVKDGHKEDLRSPGVLNGIVKAIFNEAIPEVIPGPVQVMAWLKRSAGQIIDRGDSTITWTTPSGFEVVQDLKKSKTYEVKTRIMGGARIKLQVGDGFTDEPDRDHHKSALAPNVVHSNDASLLHLTFAFWDKPFTVIHDCVLGRSCDMDQMGSDIRLHFAEMYKADVMQDWADQVGVELPVDLIKNTLDIDSVNQSLYFFS
modifications: Amino acid sequence of a cyanophage Syn5 RNAP
In the case of B1, the “transcription with ferrous as cofactor” value ([2]; 2 mM FeCl2) is reported as “produce a 71 nt runoff transcript identical to that produced in the presence of MgCl2”, the “longer transcripts (e.g. 225 nt) in the presence of iron” value ([2]; FeCl2) is reported as “did not produce longer transcripts” and the “maximum yield of short runoff products” value ([2]; manganese 0.25 to 1 mM versus magnesium) is reported as “higher in the presence of manganese”. For the same molecule, the “N+1 runoff product” value ([2]; manganese versus magnesium) was “significantly higher with manganese than that with magnesium” and the “efficiency of iron as a cofactor” value ([2]; versus magnesium) was “several times less than that of magnesium”.

— US11066655B2, “RNA polymerase, methods of purification and methods of use” (President and Fellows of Harvard College, priority 2013, dated 2021)
